Source: PMC3142331 (Molecular cell, 2011)
Square brackets hold non-standard residues; d marks the D form. Ends that are not written are not given here. fluorescein = fluorescein label (fluorescent) on the peptide N-terminus; pS = N[C@@H](COP(=O)(O)O)C(=O)O

Columns and labels:
[1] = target: tetraheptad CTD-Ser5-PO4 peptide (phosphorylated at Ser5 (CTD-Ser5-PO4)); assay: cell-based or functional assay
[2] = target: T1, fluorescein labeled phosphorylated CTD peptide (Fluor-S2P3T4S5PP6S7Y1S2PP3T4S5); assay: fluorescence polarisation
T1 peptide: fluorescein-SPT[pS]PSY[pS]PTS

B1: Mce R330A (domain or fragment)
chain: not shown
- fold stimulation of guanylylation by CTD Ser5-PO4 [1]: 2.1 fold

B2: Mce R330A/K331A/R386A (domain or fragment)
chain: not shown
- fold stimulation of guanylylation by CTD Ser5-PO4 [1]: 1.6 fold

B3: Mce-K294A (domain or fragment)
chain: not shown
- fold reduction of affinity against wild-type Mce [2]: ~1.8 fold

B4: Mce-C375R (domain or fragment)
chain: not shown
- fold stimulation of guanylylation in the presence of CTD Ser5-PO4 [1]: 5.9 fold

B5: Mce C383Y (domain or fragment)
chain: not shown
- fold decrease in affinity against wild-type Mce [2]: 1.9 fold

B6: Mce R330A/K331A (domain or fragment)
chain: not shown
- fold stimulation of guanylylation by CTD Ser5-PO4 [1]: 1.9 fold
